Km and kcat data for two proteins are collected here from doi:10.1101/2024.07.05.601840v1.

For orientation: Km means the substrate concentration at which the rate is half of its maximum. The term kcat denotes the maximal rate divided by the concentration of active sites.

What all share (assay): purified protein
Substrate in series [1]: NC(=O)C1=CN([C@@H]2O[C@H](COP(=O)(O)OP(=O)(O)OC[C@H]3O[C@@H](n4cnc5c(N)ncnc54)[C@H](OP(=O)(O)O)[C@@H]3O)[C@@H](O)[C@H]2O)C=CC1
The settings on record: 0.3 mM AcAcCoA, pH 7 TRIS-HCl, 35°C, varied: cofactor.

Substrate in series [2]: C[C@@H](O)CC(=O)SCCNC(=O)CCNC(=O)[C@H](O)C(C)(C)COP(=O)(O)OP(=O)(O)OC[C@H]1O[C@@H](n2cnc3c(N)ncnc32)[C@H](O)[C@@H]1OP(=O)(O)O
The settings on record: oxidative direction, 2 mM NADP+, pH 7 TRIS-HCl, 70°C.

Substrate in series [3]: CC(=O)CC(=O)SCCNC(=O)CCNC(=O)[C@H](O)C(C)(C)COP(=O)(O)OP(=O)(O)OC[C@H]1O[C@@H](n2cnc3c(N)ncnc32)[C@H](O)[C@@H]1OP(=O)(O)O
The settings on record: pH 7 TRIS-HCl, 35°C.

Substrate in series [4]: NC(=O)C1=CN([C@@H]2O[C@H](COP(=O)(O)OP(=O)(O)OC[C@H]3O[C@@H](n4cnc5c(N)ncnc54)[C@H](O)[C@@H]3O)[C@@H](O)[C@H]2O)C=CC1
As to conditions: 0.6 mM AcAcCoA, pH 7 TRIS-HCl, 35°C, varied: cofactor.

Substrate in series [5]: C/C=C/C(=O)SCCNC(=O)CCNC(=O)[C@H](O)C(C)(C)COP(=O)(O)OP(=O)(O)OC[C@H]1O[C@@H](n2cnc3c(N)ncnc32)[C@H](O)[C@@H]1OP(=O)(O)O
As to conditions: 0.2 mM NAD+, pH 7 TRIS-HCl, 75°C.

Substrate in series [6]: C[C@H](O)CC(=O)SCCNC(=O)CCNC(=O)[C@H](O)C(C)(C)COP(=O)(O)OP(=O)(O)OC[C@H]1O[C@@H](n2cnc3c(N)ncnc32)[C@H](O)[C@@H]1OP(=O)(O)O
As to conditions: oxidative direction with NAD+.

Substrate in series [7]: NC(=O)c1ccc[n+]([C@@H]2O[C@H](COP(=O)(O)OP(=O)(O)OC[C@H]3O[C@@H](n4cnc5c(N)ncnc54)[C@H](O)[C@@H]3O)[C@@H](O)[C@H]2O)c1
As to conditions: 0.4 mM crotonyl-CoA, pH 7 TRIS-HCl, 75°C, varied: cofactor.

B1: ACR (Saci_1104) (Sulfolobus acidocaldarius DSM 639) (protein)
chain: MYSLKDKVVVVTGSGRGIGRAIALRLAQEGSKIVVNAKKRAEEVNETVEMVKKIGGDAVGVLADVGTKEGCETLLKSTLDKFGVVDILVNNAGLGLFSLFMNADDKLIEKHISVDFKSVVYCSQAFAREMREGGEIVNIASIAGVLPAYGLSMYGAMKGAVISLTKYMALELAPKIRVNAIAPGWVKTKLGESMYKLLNMSEKEFVEKTTLMGKMLEPEDIAEFVTAILKIEGLTGQVFVVDAGESIKRGIA
Regarding B1, the Km worked out at 0.024 ± 0.003 mM in “purified protein [1]”, 0.16 ± 0.012 mM in the series “purified protein [2]” and 0.077 ± 0.009 mM in “purified protein [3]” (0.2 mM NADPH). The kcat in “purified protein [2]” is 0.435 s⁻¹; in “purified protein [3]” (0.2 mM NADPH) it was 0.586 s⁻¹.

B2: HCDH/ECH (Saci_1109) (Sulfolobus acidocaldarius DSM 639) (protein)
chain: MKVEDIKKILVIGAGTMGHGIAELAAIAGYQVYLSDVSQDILNSAMDKVKWSLTKLKERGTIKEDVETVLQRIRPVVGLDKTVSDADFSIEAITEKIDVKRQTFAKLDELLPPHAILATNTSSLPVSKIAEATKRPDKVVGMHYFNPPALMPLVEVMKGDKTSDETAKVTYELAKKLGKQPIMINKDIPGYVVNRILGGINIASCIVVEKKLADIKEVDAVARYKLGFPMGVFELLDYTGIDVAYYISKSREELGVKDDIPICSLIVEKFKNNELGVKSGKGFYTYPGPGKYVKPELPKELAEKLNPALIIAPAVNEAARLVRENIASKEDVDLGTVLGLGFQKGILKLADEVGIDNIVNSLSELKKLTGISSFDPDPLLTEMVSQGKVGMKSGSGFFEYGKIQQKTLKTLILRVEPPLAWIVLNRPERLNALSQELMGELDKVLDELEFNNDVRVVIITGNGRAFSAGADVTSFTTLRPIDVVRYRYMKNVIYKIQLYTKPVIAAINGFALGGGLELAMACDIRIASNLAQLGQPEINIGIIPGAGGTQRLPRLIGKGRAKLLIYTGDMIPAEEAYKMGLVDQVVPANKFEEEVRRVALKIAEKSPLSLLAAKLAVELGYEANIWTGQELESALFGLLFTTEDVKEGVRAFLERRKPQFKGE
Turning to B2, the Michaelis constant (Km) is 0.028 ± 0.007 mM in “purified protein [4]”; 0.024 ± 0.004 mM in the series “purified protein [5]”; 0.043 ± 0.002 mM in the series “purified protein [6]”; 0.076 ± 0.008 mM in “purified protein [3]” (0.2 mM NADH); 0.036 ± 0.009 mM in “purified protein [7]”. In addition, the turnover number (kcat) in the series “purified protein [4]” was 8.441 s⁻¹; in the series “purified protein [5]” it was 20.56 s⁻¹; in “purified protein [6]” it was 58.672 s⁻¹.
